# Where two headings read alike, the source gives them in different places. Where no end group is shown, it is not given here.
# How the values were obtained:
# [1] = biological target: recombinant gp41 (Example 2 ELISA) (HIV-1) (UniProt P04578); experiment: ELISA, Fab titrated on immobilized gp41
# IgG 4E10 = experiment: Competitive ELISA (IC50): peptide competes with biotinylated 4E10-epitope peptide for IgG 4E10; assay type: binding, human
# Experimental: IC50, were determined by competitive ELISA using a constant concentration of biotinylated peptide and IgG with a variable concentration of gp41 peptides. Microwells were coated overnight at 4° C. with 50 μl PBS containing neutravidin (Pierce; 4 μg/ml). […] A mixture of a biotinylated 4E10-epitope peptide, […](biotin)-NH2 (SEQ ID NO: 88) (20 nM), IgG 4E10 (0.2 nM), and the competing peptide analog (3-fold dilution series starting at 10 μM) in 0.4% non-fat dry milk, 0.02% Tween and PBS was incubated in a separate 96-well plate at 37° C. for 2 hours. After washing the blocked plate, the mixture of 4E10, biotinylated peptide and competing peptide was added to the wells. After 20 minutes at room temperature, the Wells were washed five times, and a 1:500 dilution of goat anti-human IgG F(ab′)2 HRP conjugate (Pierce) was added. Following incubation at RT for 40 minutes, the wells were washed five times, and developed by adding 50 μl of TMB solution (Pierce) according to the manufacturer's instructions. After ˜20 minutes, wells containing TMB solution were stopped by adding 50 μl of H2SO4 (2M) and the O.D. at 450 nm was read on a microplate reader (Molecular Devices). The concentration of competitor peptide corresponding to a half-maximal signal (IC50) was determined by interpolation of the resulting binding curve. Each peptide competitor was tested in duplicate in at least two separate experiments.
# IC50s were determined by competitive ELISA using a constant concentration of biotinylated peptide and IgG with a variable concentration of gp41 peptides. Microwells were coated overnight at 4° C. with 50 μl PBS containing neutravidin (Pierce; 4 μg/ml). […] Meanwhile, a mixture of a biotinylated 4E10-peptide epitope, […](biotin)-NH2 (SEQ ID NO: 88), (20 nM), IgG 4E10 (0.2 nM), and the competing peptide analogue (3-fold dilution series starting at 10 μM) in 0.4% NFDM, 0.02% Tween and PBS was incubated in a separate 96-well plate at 37° C. for 2 h. After washing the blocked plate, the mixture of 4E10, biotinylated peptide and competing peptide was added to the wells. After 20 min at room temperature, the wells were washed five times, and a 1:500 dilution of goat anti-human IgG F(ab′)2 HRP conjugate (Pierce) was added. Following incubation at RT for 40 min, the wells were washed five times, and developed by adding 50 μl of H2SO4 (2 M), and the O.D. at 450 nm was read on a microplate reader (Molecular Devices). The concentration of competitor peptide corresponding to a half-maximal signal (IC50) was determined by interpolation of the resulting binding curve. Each peptide competitor was tested in duplicate in at least two separate experiments.
# [2] = Circular dichroism spectroscopy of free peptides in solution (helicity); assay type: physicochemical; conditions: FIG. 48
# Experimental: To determine whether the imposed constraints increased the helicity of the peptides, each one was analyzed in solution using circular dichroism (CD) spectroscopy (FIG. 48). An Aviv spectropolarimeter Model 203-02 was used, with cells of 0.1 cm in length, a wavelength step of 0.5 nm and a bandwidth of 1.0 nm. One to three scans were reported. The exact peptide concentrations were determined by UV measurements at 280 nm on a Gison UV detector, model 116.
# [3] = biological target: peptide 104-2, NWFc(CITO)WLWKKKK-NH2; experiment: surface plasmon resonance and ELISA
# [4] = biological target: peptide 33-1, NWFDITN-Aib-LWRR-NH2; experiment: surface plasmon resonance and ELISA
# peptide 94-1, …-NH2 [5] = experiment: surface plasmon resonance and ELISA
# [6] = biological target: peptide 104-2, NWFc(CITO)WLWKKKK-NH2; experiment: surface plasmon resonance and ELISA (Table 7)
# peptide 94-1, …-NH2 [7] = experiment: surface plasmon resonance and ELISA (Table 7)
# [8] = biological target: recombinant gp41 (Example 2 ELISA) (HIV-1) (UniProt P04578); experiment: direct ELISA, antigen coated on wells, 4E10 at 5 µg/ml
# [9] = biological target: recombinant IgG1(kappa) 4E10; experiment: competitive ELISA; converted by the filing on the assumption of 25 kDa and a monomer
# Sequence of recombinant IgG1(kappa) 4E10 (heavy, as listed by the source): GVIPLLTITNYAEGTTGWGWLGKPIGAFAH
# [10] = biological target: recombinant IgG1(kappa) 4E10; experiment: competitive ELISA: gp41 against biotinylated …(biotin)-NH2 for IgG 4E10
# [11] = biological target: recombinant IgG1(kappa) 4E10; experiment: competitive ELISA, reference peptide of the alanine scan
# [12] = biological target: recombinant IgG1(kappa) 4E10; experiment: competitive ELISA: peptide against biotinylated …(biotin)-NH2 (20 nM) for IgG 4E10 (0.2 nM)
# Fab 4E10 [13] = experiment: SPR (Biacore 2000), Fab 4E10 on CM5 chip, peptide in flow
# Sequence of Fab 4E10 (heavy, as listed by the source): as above
# Fab 4E10 [14] = experiment: as above; remark: listed apart in the source
# [15] = biological target: recombinant IgG1(kappa) 4E10; experiment: competitive ELISA: peptide against biotinylated …(biotin)-NH2 for IgG 4E10
# [16] = biological target: recombinant IgG1(kappa) 4E10; experiment: cell-based or functional assay
# [17] = biological target: recombinant IgG1(kappa) 4E10; experiment: competitive ELISA for IgG 4E10
molecule,measurement,setting,value
Fab 2F5,EC50 (read off the curve),[1],0.03 µg/mL
NWFDITNWLWYIKBKBKK-NH2 [Peptide 119],"IC50 (4E10 binding, competitive ELISA)",IgG 4E10,the same IC50
same,IC50,"IgG 4E10; Table 6, constrained analogs, 4E10 binding, read-out: IC50",10 nM
same,helicity in solution by CD,[2],more helical 94-1
recombinant IgG1(kappa) 4E10 (antibody),fold higher affinity than for the original peptide KGND,[3],1000 fold
same,fold higher affinity than for the original peptide KGND,[4],1000 fold
same,fold higher affinity than for the original peptide KGND,"peptide 94-1, …-NH2 [5]",1000 fold
same,fold higher affinity than for peptide 33-1,[6],17 fold
same,fold higher affinity than for peptide 33-1,"peptide 94-1, …-NH2 [7]",17 fold
same,fold higher affinity than for the synthetic peptide (KGND),[8],4 fold
"recombinant gp41 (residues 541-682 of HxB2; Viral Therapeutics, Inc.) (from UniProt P04578 541-682)",IC50,[9],10 nM
same,IC50,[10],0.25 µg/mL
SLWNWFDITNWLWYIKKKK-NH2 [peptide …-NH2],IC50,[11],10 nM
"NWFDITNWLWKKKK-NH2 [peptide 84-1, …-NH2]",IC50,[12],40 nM
same,Kd,Fab 4E10 [13],100 nM
"NWFDITNWLWYIKKKK-NH2 [peptide 94-1, …-NH2]",Kd,Fab 4E10 [14],20 nM
same,koff,Fab 4E10 [14],0.0138 s⁻¹
same,kon,Fab 4E10 [14],691000 M⁻¹ s⁻¹
same,IC50,[15],10 nM
same,Kd,Fab 4E10 [13],18 nM
same,"inhibition of 4E10 neutralization of replication competent HIV-1 SF162 and JR-CSF (TZM-bl cells, luciferase)",[16],30 µg/mL
same,fold improvement of IC50 compared to KGND,[17],> 1000 fold
same,fold improvement of IC50 over the starting peptide (84-1),[17],4 fold
